T1: human gamma common chain expressed on CHO cells (human, UniProt P31785 23-369)
T1 construct: whole, on cells; Control protein; also called human IL-2R-γ common subunit; human gamma (γ) common chain
T1 sequence (looked up): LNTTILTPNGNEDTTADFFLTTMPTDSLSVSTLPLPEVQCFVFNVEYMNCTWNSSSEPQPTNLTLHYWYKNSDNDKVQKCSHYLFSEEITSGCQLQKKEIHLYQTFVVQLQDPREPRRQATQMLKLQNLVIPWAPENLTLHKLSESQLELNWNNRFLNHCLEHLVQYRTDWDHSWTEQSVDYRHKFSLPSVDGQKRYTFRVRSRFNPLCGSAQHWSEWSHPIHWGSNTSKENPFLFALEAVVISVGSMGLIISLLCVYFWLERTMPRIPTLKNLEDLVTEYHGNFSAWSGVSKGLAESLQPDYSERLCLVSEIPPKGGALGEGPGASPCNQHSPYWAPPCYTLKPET

T2: human IL-2Rβ (human, UniProt P14784 27-239)
T2 construct: Bought
T2 sequence (looked up): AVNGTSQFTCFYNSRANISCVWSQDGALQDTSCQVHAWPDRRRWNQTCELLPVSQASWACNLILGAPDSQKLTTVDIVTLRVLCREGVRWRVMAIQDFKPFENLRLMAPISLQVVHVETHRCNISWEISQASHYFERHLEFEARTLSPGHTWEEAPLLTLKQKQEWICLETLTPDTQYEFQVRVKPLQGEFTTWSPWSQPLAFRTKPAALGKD


Key:
[1] = target: T3, human IL-21R expressed on cells (human, UniProt Q9HBE5 20-538); assay: cell-based or functional assay
[2] = target: T4, murine IL-21R expressed on cells (murine, UniProt Q9JHX3 20-529); assay: cell-based or functional assay
[3] = target: T3, human IL-21R expressed on cells; assay: cell-based or functional assay; remark: listed apart in the source
[4] = target: T3, human IL-21R expressed on cells; assay: cell ELISA on transfected CHO cells, 13 nM IgG
Description: (§1) A subset of binding proteins was tested for binding to rat, cynomolgus monkey, human IL-21R, or human IL-2R-γ common subunit expressed transiently on the surfaces of CHO-PA-Dukx cells. Cells were transfected 48 hr prior to the assay. On the day of the assay, cells were washed gently 5× in PBS containing 0.9 mM CaCl₂ and 0.45 mM MgCl₂ (PBS/CaMg) on an automated plate washer (Titertek, Huntsville, Ala.), and blocked for 1 hr at RT in PBS/CaMg/5% nonfat dry milk. Conditioned media from transiently expressed anti-IL-21R IgGs were serially diluted in blocking buffer and added to the cells in the blocked plates for 1 hr at RT. Cells were washed 5× with PBS/CaMg and then incubated with horseradish peroxidase-conjugated anti-human IgG for 1 hr at RT. Cells were then washed 10× in PBS/CaMg and all of the wash buffer was removed. Cells were incubated with 100 μl TMB until the color reaction reached saturation, stopped with 100 μl of 0.18 M H₂SO₄, and read at A450 on a Perkin Elmer ENVISION™ plate reader.

[5] = target: T5, rat IL-21R expressed on cells (rat); assay: cell ELISA on transfected CHO cells, 13 nM IgG
T5 construct: whole, on cells; Transiently transfected CHO-PA-Dukx cells
Description: as §1

[6] = target: T6, cynomolgus monkey IL-21R expressed on CHO cells (cynomolgus monkey); assay: cell ELISA on transfected CHO cells, 13 nM IgG
T6 construct: whole, on cells
Description: as §1

[7] = target: T1, human gamma common chain expressed on …; assay: cell ELISA on transfected CHO cells, 13 nM IgG
Description: as §1

human IL-2Rβ = target: T2, human IL-2Rβ; assay: BIACORE: antibody captured on anti-human IgG, 50 nM analyte injected
Description: (§2) The specificity of binding of a subset of transiently expressed anti-IL-21R binding proteins (here antibodies) was tested on a BIACORE™ 2000 surface plasmon resonance instrument. Anti-human-IgG, anti-murine immunoglobulin antibodies, and murine IL-21R-H/F were immobilized onto a research-grade carboxymethyl-dextran chip (CM5) using standard amine coupling. The sensor chip surface was activated with EDC/NHS for 7 min at a flow rate of 20 μl/min. The first flow cell was used as reference surface to correct for bulk refractive index, matrix effects, and nonspecific binding. […] Remaining activated groups were blocked with 1.0 M ethanolamine (pH 8.0). The molecular weights of the anti-human IgG and the anti-murine IgG were both 150 kD, and the molecular weight of the IL-21R monomer was 27 kD.
(§3) Conditioned media containing anti-IL-21R antibodies and antibody controls (murine anti-human IL-2Rβ and murine anti-human IL-4R(R&D Systems, Minneapolis, Minn.); human anti-human IL-13 (Wyeth, Cambridge, Mass.)) were diluted in HBS/EP buffer supplemented with 0.2% bovine serum and injected onto all four flow cells of the BIACORE™ chip, capturing 500-700 (RU) of antibody on the species-appropriate capture antibody. Following a 5 sec washing period, 50 nM solutions of a positive control protein (murine IL-21R-H/F), two human proteins related to IL-21R (human IL-2Rβ and human sIL-4R(R&D Systems)), or an unrelated His/FLAG-tagged protein (human IL-13-H/F), were injected over the captured antibodies on the chip. The association and dissociation phases were monitored for 120 and 180 sec, respectively, followed by two 5 μl injections of glycine (pH 1.5) to regenerate a fully active capturing surface. All binding experiments were done at 25° C. in HBS/EP buffer. Blank and buffer effects were subtracted for each sensorgram using double referencing.

human soluble IL-4R = target: T7, human soluble IL-4R (human, UniProt P24394 26-231, limits assumed); assay: as above
T7 construct: soluble; also called human sIL-4R
Description: as §2, §3

human IL-13-His/FLAG = target: T8, human IL-13-His/FLAG (human, UniProt P35225 35-146, limits assumed); assay: as above
T8 construct: Unrelated His/FLAG-tagged control; also called human IL-13-H/F
Description: as §2, §3

[8] = target: T3, human IL-21R expressed on cells; assay: cell-based or functional assay; remark: listed apart in the source
[9] = target: T4, murine IL-21R expressed on cells; assay: cell-based or functional assay; remark: listed apart in the source
[10] = target: T3, human IL-21R expressed on cells; assay: cell-based or functional assay; remark: listed apart in the source
[11] = target: T4, murine IL-21R expressed on cells; assay: cell-based or functional assay; remark: listed apart in the source
[12] = target: T5, rat IL-21R expressed on cells; assay: cell-based or functional assay

T7 sequence (P24394 26-231 limits assumed): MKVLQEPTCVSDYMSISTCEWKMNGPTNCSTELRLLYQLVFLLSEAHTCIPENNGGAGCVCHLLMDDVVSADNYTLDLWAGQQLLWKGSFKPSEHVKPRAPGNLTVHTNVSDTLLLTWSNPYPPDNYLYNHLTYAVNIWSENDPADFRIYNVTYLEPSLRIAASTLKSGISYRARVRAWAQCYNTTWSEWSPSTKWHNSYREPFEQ
T4 sequence (Q9JHX3 20-529 limits assumed): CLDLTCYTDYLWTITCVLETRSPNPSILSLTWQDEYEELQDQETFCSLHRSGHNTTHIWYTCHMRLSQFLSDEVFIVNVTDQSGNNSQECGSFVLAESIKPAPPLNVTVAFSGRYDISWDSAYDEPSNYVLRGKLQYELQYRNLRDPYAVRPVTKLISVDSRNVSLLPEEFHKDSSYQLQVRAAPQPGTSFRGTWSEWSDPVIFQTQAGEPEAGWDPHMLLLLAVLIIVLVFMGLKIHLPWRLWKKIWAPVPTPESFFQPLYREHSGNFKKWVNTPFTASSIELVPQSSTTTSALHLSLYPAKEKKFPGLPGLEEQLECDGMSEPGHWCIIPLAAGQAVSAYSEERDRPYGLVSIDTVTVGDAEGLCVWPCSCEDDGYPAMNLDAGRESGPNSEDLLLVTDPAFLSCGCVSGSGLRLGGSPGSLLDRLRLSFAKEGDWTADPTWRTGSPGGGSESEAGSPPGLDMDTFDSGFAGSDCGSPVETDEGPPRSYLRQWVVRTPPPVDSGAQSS
T3 sequence (Q9HBE5 20-538 limits assumed): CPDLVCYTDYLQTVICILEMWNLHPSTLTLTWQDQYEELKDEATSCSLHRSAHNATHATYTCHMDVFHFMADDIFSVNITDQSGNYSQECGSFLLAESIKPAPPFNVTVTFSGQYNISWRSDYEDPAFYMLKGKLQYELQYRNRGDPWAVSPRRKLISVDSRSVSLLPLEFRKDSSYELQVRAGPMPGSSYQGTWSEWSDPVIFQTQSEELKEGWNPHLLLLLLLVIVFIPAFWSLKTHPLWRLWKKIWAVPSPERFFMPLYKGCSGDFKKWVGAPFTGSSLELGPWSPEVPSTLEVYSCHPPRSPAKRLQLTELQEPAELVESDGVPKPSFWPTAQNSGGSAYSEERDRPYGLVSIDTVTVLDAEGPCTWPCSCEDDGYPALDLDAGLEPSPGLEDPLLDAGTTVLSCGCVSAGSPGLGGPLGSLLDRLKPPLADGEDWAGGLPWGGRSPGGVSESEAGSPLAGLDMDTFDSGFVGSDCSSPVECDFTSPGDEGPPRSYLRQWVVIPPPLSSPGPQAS
T8 sequence (P35225 35-146 limits assumed): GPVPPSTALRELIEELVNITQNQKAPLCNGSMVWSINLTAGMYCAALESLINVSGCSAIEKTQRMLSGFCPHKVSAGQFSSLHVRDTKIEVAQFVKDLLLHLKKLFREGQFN

Row | Human IL-21R-BaF3 Proliferation IC50 [1] | Human IL-21R-TF1 Proliferation IC50 [1] | Murine IL-21R-BaF3 Proliferation IC50 [2] | Neutralization of T cell Proliferation IC50 (nM), human primary CD4+ T cells [3] | A450 at 13 nM Ab in cell ELISA [4] | A450 at 13 nM Ab in cell ELISA [5] | A450 at 13 nM Ab in cell ELISA [6] | A450 at 13 nM Ab in cell ELISA [7] | binding result (human IL-2Rβ) | binding result (human soluble IL-4R) | binding result (human IL-13-His/FLAG) | Human IL-21R-BaF3 Neutralization IC50 [8] | Human IL-21R-TF1 Neutralization IC50 [8] | Murine IL-21R-BaF3 Neutralization IC50 [9] | Neutralization of B cell proliferation IC50 [10] | Neutralization of T cell Proliferation IC50 (nM), murine primary CD8+ T cells [11] | IC50 (nM) experiment 1, rat T cell proliferation [12] | IC50 (nM) experiment 2, rat T cell proliferation [12] | Binder
1 | 0.75 nM | 3.48 nM | 0.03 nM | 0.02 nM | 1.31 A450 | 1.03 A450 | 1.31 A450 | 0.112 A450 | no binding (tested: 50 nM) | no binding (tested: 50 nM) | no binding (tested: 50 nM) | – | – | – | – | – | – | – | AbP (antibody, human IgG1, V domains shown, Human IgG1 triple-mutant (L234A, L235A, G237A); Framework limits derived; also called VHP/VL20; VHPTM/VL20) VH: QVQLQESGPGLVKPSETLSLTCAVSGYSISSGYYWGWIRQPPGKGLEWIGSISHTGNTYYNPPLKSRVTISVDTSKNQFSLKLSSVTAADTAVYYCARGGGISRPEYWGQGTLVTVSS VL: SSELTQDPAVSVALGQTVRITCQGDSLRTYYASWYQQKPGQAPVLVIYGKHKRPSGIPDRFSGSSSGNTASLTITGAQAEDEADYYCVSRSAKGNPHVLFGGGTQLTVL
2 | – | – | – | 1.42 nM | – | – | – | – | – | – | – | 1.71 nM | 14 nM | 177 nM | 1.86 nM | > 85 nM | – | – | parental 18A5 antibody (antibody, V domains shown) VH: QVQLQESGPGLVKTSETLSLTCAVSGYSISSGYYWGWIRQPPGKGLEWIGSISHTGNTYYNPPLKSRVTISVDTSKNQFSLKLSSVTAADTAVYYCARGGGISRPEYWGKGTLVTVSS VL: SSELTQDPPVSVALGQTVTLTCQGDSLRTYYASWYQQKSGQAPILLLYGKHKRPSGIPDRFSGSTSGDTASLTITGAQAEDEADYYCNSRDSSGNPHVLFGGGTQLTVL
3 | – | – | – | – | – | – | – | – | – | – | – | – | – | – | – | – | 159 nM | 94.7 nM | AbW (antibody, human IgG1, V domains shown) VH: QVQLQESGPGLVKPSETLSLTCAVSGYSISSGYYWGWIRQPPGKGLEWIGSISHTGNTYYNPPLKSRVTISVDTSKNQFSLKLSSVTAADTAVYYCARFMGFGRPEYWGQGTLVTVSS VL: SSELTQDPAVSVALGQTVRITCQGDSLRTYYASWYQQKPGQAPVLVIYGKHKRPSGIPDRFSGSSSGNTASLTITGAQAEDEADYYCVTRSVKGNPHVLFGGGTQLTVL
4 | 0.67 nM | 3.26 nM | 0.093 nM | 0.03 nM | 1.08 A450 | 0.994 A450 | 1.22 A450 | 0.102 A450 | no binding (tested: 50 nM) | no binding (tested: 50 nM) | no binding (tested: 50 nM) | 0.3 nM | 2.32 nM | 0.05 nM | 0.14 nM | 0.61 nM | – | – | AbT (antibody, human IgG1, V domains shown, Human IgG1 triple-mutant (L234A, L235A, G237A); Framework limits derived; also called VHP/VL9; VHPTM/VL9) VH: QVQLQESGPGLVKPSETLSLTCAVSGYSISSGYYWGWIRQPPGKGLEWIGSISHTGNTYYNPPLKSRVTISVDTSKNQFSLKLSSVTAADTAVYYCARGGGISRPEYWGQGTLVTVSS VL: SSELTQDPAVSVALGQTVRITCQGDSLRTYYASWYQQKPGQAPVLVIYGKHKRPSGIPDRFSGSSSGNTASLTITGAQAEDEADYYCVARSNKGNPHVLFGGGTQLTVL
5 | 1.53 nM | 5 nM | 0.04 nM | 0.06 nM | 1.02 A450 | 1.17 A450 | 1.22 A450 | 0.118 A450 | no binding (tested: 50 nM) | no binding (tested: 50 nM) | no binding (tested: 50 nM) | 0.68 nM | 6.67 nM | 0.04 nM | 0.44 nM | 0.02 nM | 36 nM | 27.1 nM | AbS (antibody, human IgG1, V domains shown, Human IgG1 triple-mutant (L234A, L235A, G237A); Framework limits derived; also called VHP/VL6; VHPTM/VL6) VH: QVQLQESGPGLVKPSETLSLTCAVSGYSISSGYYWGWIRQPPGKGLEWIGSISHTGNTYYNPPLKSRVTISVDTSKNQFSLKLSSVTAADTAVYYCARGGGISRPEYWGQGTLVTVSS VL: SSELTQDPAVSVALGQTVRITCQGDSLRTYYASWYQQKPGQAPVLVIYGKHKRPSGIPDRFSGSSSGNTASLTITGAQAEDEADYYCMSRSIWGNPHVLFGGGTQLTVL
6 | 0.87 nM | 3.94 nM | 0.302 nM | 0.04 nM | 1.33 A450 | 1.11 A450 | 1.35 A450 | 0.109 A450 | no binding (tested: 50 nM) | no binding (tested: 50 nM) | no binding (tested: 50 nM) | 0.56 nM | 1.63 nM | 0.34 nM | 0.22 nM | 0.13 nM | – | – | AbR (antibody, human IgG1, V domains shown, Purified form: human IgG1 double-mutant (L234A, G237A); Framework limits derived; also called VH3/VL18; VH3DM/VL18) VH: QVQLQESGPGLVKPSETLSLTCAVSGYSISSGYYWGWIRQPPGKGLEWIGSISHTGNTYYNPPLKSRVTISVDTSKNQFSLKLSSVTAADTAVYYCARFMGFGRPEYWGQGTLVTVSS VL: SSELTQDPAVSVALGQTVRITCQGDSLRTYYASWYQQKPGQAPVLVIYGKHKRPSGIPDRFSGSSSGNTASLTITGAQAEDEADYYCVTRSVKGNPHVLFGGGTQLTVL
